Data published in publication PMC12077208 (2025).

B1: CHIKV nsP3 peptide CHIKV-43 (residues Glu469-Thr511) (peptide)
chain: GPLGSETFPITFGDFNDGEIESLSSELLTFGDFLPGEVDDLTDSDWSTHHHHHH

Molecular target: nuclear translocation factor 2-like (NTF2L) domain of human G3BP1 (human, UniProt Q13283-1 1-138)
Assay: ITC

Chain of nuclear translocation factor 2-like (NTF2L) domain of human G3BP1 (Q13283 other isoform, or with tags, fused parts or gaps): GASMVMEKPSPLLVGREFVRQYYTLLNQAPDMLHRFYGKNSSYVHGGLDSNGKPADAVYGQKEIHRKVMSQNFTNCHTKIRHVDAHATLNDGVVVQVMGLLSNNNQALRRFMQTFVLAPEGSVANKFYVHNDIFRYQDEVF

Row | Binder | Kd
1 | ITFGDFNDGEIESLSSELLTFGDFLP [CHIKV-26 peptide (residues Ile473 to Pro498 of CHIKV nsP3, without the α2 region)] | 7.8 µM
2 | B1 | 0.078 µM
